Test results published in patent US20180071366A1.
Numbered stars: 1 amine (or outer) side, 2 acyl side, 3 side chain; on linkers, the order of the positions; unused ones are H or OH. Bridge positions count the residues as written; N and C are the ends. Square brackets hold non-standard residues; d marks the D form. * marks the point of attachment. C20 diacid = O=C(O)CCCCCCCCCCCCCCCCCCC(=O)*; γGlu = O=C(O)[C@H](CCC(=O)[*:2])N[*:1]; Hyp = O=C(O)[C@@H]1C[C@@H](O)CN1; NMeI = CC[C@H](C)[C@H](NC)C(=O)O; Aad = N[C@@H](CCCC(=O)O)C(=O)O; Orn = NCCC[C@H](N)C(=O)O; Dab = NCC[C@H](N)C(=O)O; Dap = NC[C@H](N)C(=O)O; Sar = CNCC(=O)O

Columns and labels:
[1] = biological target: recombinant human amylin 3 receptor (hAMYR3) (human), P30988; test: cell-based or functional assay
[2] = biological target: recombinant human calcitonin receptor (hCT-R) (human), P30988; test: cell-based or functional assay
Chain of recombinant human calcitonin receptor (hCT-R) (human), P30988 (P30988 25-474): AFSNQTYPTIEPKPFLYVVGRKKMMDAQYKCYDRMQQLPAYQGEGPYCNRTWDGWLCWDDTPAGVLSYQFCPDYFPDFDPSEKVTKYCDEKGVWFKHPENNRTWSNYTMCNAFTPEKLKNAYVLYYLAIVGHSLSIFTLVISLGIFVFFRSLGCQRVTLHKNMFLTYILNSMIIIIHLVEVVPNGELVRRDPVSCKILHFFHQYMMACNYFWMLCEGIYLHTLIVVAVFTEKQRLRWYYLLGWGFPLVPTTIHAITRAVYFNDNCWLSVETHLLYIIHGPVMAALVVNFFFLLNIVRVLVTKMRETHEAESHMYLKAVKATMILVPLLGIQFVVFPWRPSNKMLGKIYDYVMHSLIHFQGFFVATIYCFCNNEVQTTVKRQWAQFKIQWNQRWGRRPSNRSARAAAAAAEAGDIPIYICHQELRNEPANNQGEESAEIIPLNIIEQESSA

Chain of recombinant human amylin 3 receptor (hAMYR3) (human), P30988 (P30988 25-474, chain 1 of 2): as the sequence (P30988 25-474) above
Chain of recombinant human amylin 3 receptor (hAMYR3) (human), P30988 (O60896 24-148, chain 2 of 2, further chain): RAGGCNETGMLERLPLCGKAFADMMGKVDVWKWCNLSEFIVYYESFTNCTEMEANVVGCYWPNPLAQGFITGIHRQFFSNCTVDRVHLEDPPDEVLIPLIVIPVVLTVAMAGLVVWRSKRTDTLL

B1: Compound 50 (peptide)
peptide: {C20 diacid-γGlu}-R[Aad]GTAT[Dap]ATERLAHFLQRSSF[Sar]A[NMeI]LSSTEVGSNT[Hyp]-NH2
modifications: lactam 2-7
SMILES: CC[C@H](C)[C@@H](C(=O)N[C@@H](CC(C)C)C(=O)N[C@@H](CO)C(=O)N[C@@H](CO)C(=O)N[C@H](C(=O)N[C@@H](CCC(=O)O)C(=O)N[C@H](C(=O)NCC(=O)N[C@@H](CO)C(=O)N[C@@H](CC(N)=O)C(=O)N[C@H](C(=O)N1C[C@H](O)C[C@H]1C(N)=O)[C@@H](C)O)C(C)C)[C@@H](C)O)N(C)C(=O)[C@H](C)NC(=O)CN(C)C(=O)[C@H](Cc1ccccc1)NC(=O)[C@H](CO)NC(=O)[C@H](CO)NC(=O)[C@H](CCCNC(=N)N)NC(=O)[C@H](CCC(N)=O)NC(=O)[C@H](CC(C)C)NC(=O)[C@H](Cc1ccccc1)NC(=O)[C@H](Cc1c[nH]cn1)NC(=O)[C@H](C)NC(=O)[C@H](CC(C)C)NC(=O)[C@H](CCCNC(=N)N)NC(=O)[C@H](CCC(=O)O)NC(=O)[C@@H](NC(=O)[C@H](C)NC(=O)[C@@H]1CNC(=O)CCC[C@H](NC(=O)[C@H](CCCNC(=N)N)NC(=O)CC[C@H](NC(=O)CCCCCCCCCCCCCCCCCCC(=O)O)C(=O)O)C(=O)NCC(=O)N[C@@H]([C@@H](C)O)C(=O)N[C@@H](C)C(=O)N[C@@H]([C@@H](C)O)C(=O)N1)[C@@H](C)O
hAMYR3 EC50 [nM] (cAMP formation, 1321N1 cells expressing hAMYR3) [1]: 1.5 nM | hCT-R EC50 [nM] (cAMP formation, 1321N1 cells expressing hCT-R) [2]: 3.3 nM

B2: Compound 51 (peptide)
peptide: {C20 diacid-γGlu}-REGTAT[Dab]ATERLAHFLQRSSF[Sar]A[NMeI]LSSTEVGSNT[Hyp]-NH2
modifications: lactam 2-7
SMILES: CC[C@H](C)[C@@H](C(=O)N[C@@H](CC(C)C)C(=O)N[C@@H](CO)C(=O)N[C@@H](CO)C(=O)N[C@H](C(=O)N[C@@H](CCC(=O)O)C(=O)N[C@H](C(=O)NCC(=O)N[C@@H](CO)C(=O)N[C@@H](CC(N)=O)C(=O)N[C@H](C(=O)N1C[C@H](O)C[C@H]1C(N)=O)[C@@H](C)O)C(C)C)[C@@H](C)O)N(C)C(=O)[C@H](C)NC(=O)CN(C)C(=O)[C@H](Cc1ccccc1)NC(=O)[C@H](CO)NC(=O)[C@H](CO)NC(=O)[C@H](CCCNC(=N)N)NC(=O)[C@H](CCC(N)=O)NC(=O)[C@H](CC(C)C)NC(=O)[C@H](Cc1ccccc1)NC(=O)[C@H](Cc1c[nH]cn1)NC(=O)[C@H](C)NC(=O)[C@H](CC(C)C)NC(=O)[C@H](CCCNC(=N)N)NC(=O)[C@H](CCC(=O)O)NC(=O)[C@@H](NC(=O)[C@H](C)NC(=O)[C@@H]1CCNC(=O)CC[C@H](NC(=O)[C@H](CCCNC(=N)N)NC(=O)CC[C@H](NC(=O)CCCCCCCCCCCCCCCCCCC(=O)O)C(=O)O)C(=O)NCC(=O)N[C@@H]([C@@H](C)O)C(=O)N[C@@H](C)C(=O)N[C@@H]([C@@H](C)O)C(=O)N1)[C@@H](C)O
hAMYR3 EC50 [nM] (cAMP formation, 1321N1 cells expressing hAMYR3) [1]: 0.306 nM | hCT-R EC50 [nM] (cAMP formation, 1321N1 cells expressing hCT-R) [2]: 0.861 nM

B3: Ref. 1 (peptide)
peptide: {C20 diacid-γGlu}-RDGTAT[Orn]ATERLAHFLQRSSF[Sar]A[NMeI]PSSTEVGSNT[Hyp]-NH2
SMILES: CC[C@H](C)[C@@H](C(=O)N1CCC[C@H]1C(=O)N[C@@H](CO)C(=O)N[C@@H](CO)C(=O)N[C@H](C(=O)N[C@@H](CCC(=O)O)C(=O)N[C@H](C(=O)NCC(=O)N[C@@H](CO)C(=O)N[C@@H](CC(N)=O)C(=O)N[C@H](C(=O)N1C[C@H](O)C[C@H]1C(N)=O)[C@@H](C)O)C(C)C)[C@@H](C)O)N(C)C(=O)[C@H](C)NC(=O)CN(C)C(=O)[C@H](Cc1ccccc1)NC(=O)[C@H](CO)NC(=O)[C@H](CO)NC(=O)[C@H](CCCNC(=N)N)NC(=O)[C@H](CCC(N)=O)NC(=O)[C@H](CC(C)C)NC(=O)[C@H](Cc1ccccc1)NC(=O)[C@H](Cc1c[nH]cn1)NC(=O)[C@H](C)NC(=O)[C@H](CC(C)C)NC(=O)[C@H](CCCNC(=N)N)NC(=O)[C@H](CCC(=O)O)NC(=O)[C@@H](NC(=O)[C@H](C)NC(=O)[C@H](CCCN)NC(=O)[C@@H](NC(=O)[C@H](C)NC(=O)[C@@H](NC(=O)CNC(=O)[C@H](CC(=O)O)NC(=O)[C@H](CCCNC(=N)N)NC(=O)CC[C@H](NC(=O)CCCCCCCCCCCCCCCCCCC(=O)O)C(=O)O)[C@@H](C)O)[C@@H](C)O)[C@@H](C)O
hAMYR3 EC50 [nM] (cAMP formation, 1321N1 cells expressing hAMYR3) [1]: 17.1 nM | hCT-R EC50 [nM] (cAMP formation, 1321N1 cells expressing hCT-R) [2]: 20.3 nM

B4: Ref. 2 (peptide)
peptide: {C20 diacid-γGlu}-RCGTATCATERLAHFLQRSSF[Sar]A[NMeI]LSSTEVGSNT[Hyp]-NH2
modifications: disulfide 2-7
SMILES: CC[C@H](C)[C@@H](C(=O)N[C@@H](CC(C)C)C(=O)N[C@@H](CO)C(=O)N[C@@H](CO)C(=O)N[C@H](C(=O)N[C@@H](CCC(=O)O)C(=O)N[C@H](C(=O)NCC(=O)N[C@@H](CO)C(=O)N[C@@H](CC(N)=O)C(=O)N[C@H](C(=O)N1C[C@H](O)C[C@H]1C(N)=O)[C@@H](C)O)C(C)C)[C@@H](C)O)N(C)C(=O)[C@H](C)NC(=O)CN(C)C(=O)[C@H](Cc1ccccc1)NC(=O)[C@H](CO)NC(=O)[C@H](CO)NC(=O)[C@H](CCCNC(=N)N)NC(=O)[C@H](CCC(N)=O)NC(=O)[C@H](CC(C)C)NC(=O)[C@H](Cc1ccccc1)NC(=O)[C@H](Cc1c[nH]cn1)NC(=O)[C@H](C)NC(=O)[C@H](CC(C)C)NC(=O)[C@H](CCCNC(=N)N)NC(=O)[C@H](CCC(=O)O)NC(=O)[C@@H](NC(=O)[C@H](C)NC(=O)[C@@H]1CSSC[C@H](NC(=O)[C@H](CCCNC(=N)N)NC(=O)CC[C@H](NC(=O)CCCCCCCCCCCCCCCCCCC(=O)O)C(=O)O)C(=O)NCC(=O)N[C@@H]([C@@H](C)O)C(=O)N[C@@H](C)C(=O)N[C@@H]([C@@H](C)O)C(=O)N1)[C@@H](C)O
hAMYR3 EC50 [nM] (cAMP formation, 1321N1 cells expressing hAMYR3) [1]: 0.003 nM | hCT-R EC50 [nM] (cAMP formation, 1321N1 cells expressing hCT-R) [2]: 0.019 nM

B5: Ref. 3 (peptide)
peptide: {C20 diacid-γGlu}-RDGTAT[Orn]ATERLA[Aad]FLQRSSF[Sar]A[NMeI]LSSTEVGSNT[Hyp]-NH2
SMILES: CC[C@H](C)[C@@H](C(=O)N[C@@H](CC(C)C)C(=O)N[C@@H](CO)C(=O)N[C@@H](CO)C(=O)N[C@H](C(=O)N[C@@H](CCC(=O)O)C(=O)N[C@H](C(=O)NCC(=O)N[C@@H](CO)C(=O)N[C@@H](CC(N)=O)C(=O)N[C@H](C(=O)N1C[C@H](O)C[C@H]1C(N)=O)[C@@H](C)O)C(C)C)[C@@H](C)O)N(C)C(=O)[C@H](C)NC(=O)CN(C)C(=O)[C@H](Cc1ccccc1)NC(=O)[C@H](CO)NC(=O)[C@H](CO)NC(=O)[C@H](CCCNC(=N)N)NC(=O)[C@H](CCC(N)=O)NC(=O)[C@H](CC(C)C)NC(=O)[C@H](Cc1ccccc1)NC(=O)[C@H](CCCC(=O)O)NC(=O)[C@H](C)NC(=O)[C@H](CC(C)C)NC(=O)[C@H](CCCNC(=N)N)NC(=O)[C@H](CCC(=O)O)NC(=O)[C@@H](NC(=O)[C@H](C)NC(=O)[C@H](CCCN)NC(=O)[C@@H](NC(=O)[C@H](C)NC(=O)[C@@H](NC(=O)CNC(=O)[C@H](CC(=O)O)NC(=O)[C@H](CCCNC(=N)N)NC(=O)CC[C@H](NC(=O)CCCCCCCCCCCCCCCCCCC(=O)O)C(=O)O)[C@@H](C)O)[C@@H](C)O)[C@@H](C)O
hAMYR3 EC50 [nM] (cAMP formation, 1321N1 cells expressing hAMYR3) [1]: 13.2 nM | hCT-R EC50 [nM] (cAMP formation, 1321N1 cells expressing hCT-R) [2]: 18.2 nM

B6: Ref. 4 (peptide)
peptide: {C20 diacid-γGlu}-RCGTATCATERLA[Aad]FLQRSSF[Sar]A[NMeI]LSSTEVGSNT[Hyp]-NH2
modifications: disulfide 2-7
SMILES: CC[C@H](C)[C@@H](C(=O)N[C@@H](CC(C)C)C(=O)N[C@@H](CO)C(=O)N[C@@H](CO)C(=O)N[C@H](C(=O)N[C@@H](CCC(=O)O)C(=O)N[C@H](C(=O)NCC(=O)N[C@@H](CO)C(=O)N[C@@H](CC(N)=O)C(=O)N[C@H](C(=O)N1C[C@H](O)C[C@H]1C(N)=O)[C@@H](C)O)C(C)C)[C@@H](C)O)N(C)C(=O)[C@H](C)NC(=O)CN(C)C(=O)[C@H](Cc1ccccc1)NC(=O)[C@H](CO)NC(=O)[C@H](CO)NC(=O)[C@H](CCCNC(=N)N)NC(=O)[C@H](CCC(N)=O)NC(=O)[C@H](CC(C)C)NC(=O)[C@H](Cc1ccccc1)NC(=O)[C@H](CCCC(=O)O)NC(=O)[C@H](C)NC(=O)[C@H](CC(C)C)NC(=O)[C@H](CCCNC(=N)N)NC(=O)[C@H](CCC(=O)O)NC(=O)[C@@H](NC(=O)[C@H](C)NC(=O)[C@@H]1CSSC[C@H](NC(=O)[C@H](CCCNC(=N)N)NC(=O)CC[C@H](NC(=O)CCCCCCCCCCCCCCCCCCC(=O)O)C(=O)O)C(=O)NCC(=O)N[C@@H]([C@@H](C)O)C(=O)N[C@@H](C)C(=O)N[C@@H]([C@@H](C)O)C(=O)N1)[C@@H](C)O
hAMYR3 EC50 [nM] (cAMP formation, 1321N1 cells expressing hAMYR3) [1]: 0.031 nM | hCT-R EC50 [nM] (cAMP formation, 1321N1 cells expressing hCT-R) [2]: 0.075 nM

B7: Compound 6 (peptide)
peptide: {C20 diacid-γGlu}-RDGTAT[Orn]ATERLAHFLQRF[Sar]A[NMeI]LSSTEVGSNT[Hyp]-NH2
modifications: lactam 2-7
SMILES: CC[C@H](C)[C@@H](C(=O)N[C@@H](CC(C)C)C(=O)N[C@@H](CO)C(=O)N[C@@H](CO)C(=O)N[C@H](C(=O)N[C@@H](CCC(=O)O)C(=O)N[C@H](C(=O)NCC(=O)N[C@@H](CO)C(=O)N[C@@H](CC(N)=O)C(=O)N[C@H](C(=O)N1C[C@H](O)C[C@H]1C(N)=O)[C@@H](C)O)C(C)C)[C@@H](C)O)N(C)C(=O)[C@H](C)NC(=O)CN(C)C(=O)[C@H](Cc1ccccc1)NC(=O)[C@H](CCCNC(=N)N)NC(=O)[C@H](CCC(N)=O)NC(=O)[C@H](CC(C)C)NC(=O)[C@H](Cc1ccccc1)NC(=O)[C@H](Cc1c[nH]cn1)NC(=O)[C@H](C)NC(=O)[C@H](CC(C)C)NC(=O)[C@H](CCCNC(=N)N)NC(=O)[C@H](CCC(=O)O)NC(=O)[C@@H](NC(=O)[C@H](C)NC(=O)[C@@H]1CCCNC(=O)C[C@H](NC(=O)[C@H](CCCNC(=N)N)NC(=O)CC[C@H](NC(=O)CCCCCCCCCCCCCCCCCCC(=O)O)C(=O)O)C(=O)NCC(=O)N[C@@H]([C@@H](C)O)C(=O)N[C@@H](C)C(=O)N[C@@H]([C@@H](C)O)C(=O)N1)[C@@H](C)O
hAMYR3 EC50 [nM] (cAMP formation, 1321N1 cells expressing hAMYR3) [1]: 0.011 nM | hCT-R EC50 [nM] (cAMP formation, 1321N1 cells expressing hCT-R) [2]: 0.327 nM
